Experiments:
[1] = biological target: human Gal9 protein (R&D systems) (human) (UniProt O00182); test: ELISA, hGal9 coated, mTIM-3 Fc with or without 25 mM lactose
[2] = biological target: mouse Gal3 on mouse cells (B16F10 tumor cells, RAW264.7 macrophages) (mouse) (UniProt P16110); test: flow cytometry, B16F10 cells
Sequence of mouse Gal3 on mouse cells (B16F10 tumor cells, RAW264.7 macrophages) (mouse) (P16110 2-264): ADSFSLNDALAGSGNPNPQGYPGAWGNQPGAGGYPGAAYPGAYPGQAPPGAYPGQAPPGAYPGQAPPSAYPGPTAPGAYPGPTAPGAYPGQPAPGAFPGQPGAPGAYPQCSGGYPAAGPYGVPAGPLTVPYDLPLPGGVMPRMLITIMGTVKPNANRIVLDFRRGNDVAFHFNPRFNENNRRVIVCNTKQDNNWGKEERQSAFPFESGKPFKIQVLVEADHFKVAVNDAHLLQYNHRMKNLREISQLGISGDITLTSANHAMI

Sequence of human Gal9 protein (R&D systems) (human) (O00182 other isoform, or with tags, fused parts or gaps limits assumed): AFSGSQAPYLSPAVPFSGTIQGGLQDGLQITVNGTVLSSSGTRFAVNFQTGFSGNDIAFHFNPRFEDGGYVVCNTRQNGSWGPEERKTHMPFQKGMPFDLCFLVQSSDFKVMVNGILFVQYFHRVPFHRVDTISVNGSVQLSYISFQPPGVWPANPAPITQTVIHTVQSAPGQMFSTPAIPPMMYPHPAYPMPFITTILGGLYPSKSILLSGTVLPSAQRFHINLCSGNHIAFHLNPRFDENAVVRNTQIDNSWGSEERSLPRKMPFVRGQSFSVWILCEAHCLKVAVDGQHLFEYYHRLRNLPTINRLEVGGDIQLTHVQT

Row | Substance | fold reduction in signal with 25 mM lactose [1] | MFI, fold over isotype control antibody [2]
1 | mouse TIM-3 Fc protein (R&D systems) (from UniProt Q8VIM0 20-191) (Fc fusion) | > 10 fold | 
2 | rat anti mouse Gal3 PE antibody (Thermo Fisher Scientific) |  | 10 fold
